Patent publication US20120053225A1 (H LEE MOFFITT CANCER CENTER AND RESEARCH INSTITUTE, published 2012)

What was measured:
[1] = molecular target: T1, endogenous Ack1 of mouse embryo fibroblasts (mouse, UniProt O54967 1-1055, limits assumed); assay: co-IP with Ack1 antibodies from EGF-treated MEF lysates, immunoblot with pan-AKT antibodies
T1 construct: Endogenous protein immunoprecipitated from MEF lysates with anti-Ack1 antibodies; also called TNK2
Method: Membrane and cytosolic fractionation was performed using membrane fractionation kit (BioVision, Inc, CA). The nuclear/cytoplasmic fractionation was performed using protocol from Abcam (Abcam, Inc., Cambridge, Mass.). For immunoprecipitations, cells were lysed in receptor lysis buffer (RLB) containing 25 mmol/L Tris (pH 7.5), 500 mmol/L NaCl, 1% Triton X-100, 10% glycerol, phosphatase inhibitors (10 mmol/L NaF, 1 mmol/L Na₂VO₄), and protease inhibitor mix (Hoffmann-La Roche Inc., Switzerland). […] The kinase assay was performed using kit from Calbiochem.

[2] = molecular target: T2, HA-tagged AKT Y176F mutant (UniProt P31749 1-480); assay: pull-down of purified proteins on GST-Ack1 glutathione beads, immunoblot
T2 construct: also called Y176F mutant of AKT; HA-Y176F; not shown: HA tag

T1 sequence (O54967 whole entry): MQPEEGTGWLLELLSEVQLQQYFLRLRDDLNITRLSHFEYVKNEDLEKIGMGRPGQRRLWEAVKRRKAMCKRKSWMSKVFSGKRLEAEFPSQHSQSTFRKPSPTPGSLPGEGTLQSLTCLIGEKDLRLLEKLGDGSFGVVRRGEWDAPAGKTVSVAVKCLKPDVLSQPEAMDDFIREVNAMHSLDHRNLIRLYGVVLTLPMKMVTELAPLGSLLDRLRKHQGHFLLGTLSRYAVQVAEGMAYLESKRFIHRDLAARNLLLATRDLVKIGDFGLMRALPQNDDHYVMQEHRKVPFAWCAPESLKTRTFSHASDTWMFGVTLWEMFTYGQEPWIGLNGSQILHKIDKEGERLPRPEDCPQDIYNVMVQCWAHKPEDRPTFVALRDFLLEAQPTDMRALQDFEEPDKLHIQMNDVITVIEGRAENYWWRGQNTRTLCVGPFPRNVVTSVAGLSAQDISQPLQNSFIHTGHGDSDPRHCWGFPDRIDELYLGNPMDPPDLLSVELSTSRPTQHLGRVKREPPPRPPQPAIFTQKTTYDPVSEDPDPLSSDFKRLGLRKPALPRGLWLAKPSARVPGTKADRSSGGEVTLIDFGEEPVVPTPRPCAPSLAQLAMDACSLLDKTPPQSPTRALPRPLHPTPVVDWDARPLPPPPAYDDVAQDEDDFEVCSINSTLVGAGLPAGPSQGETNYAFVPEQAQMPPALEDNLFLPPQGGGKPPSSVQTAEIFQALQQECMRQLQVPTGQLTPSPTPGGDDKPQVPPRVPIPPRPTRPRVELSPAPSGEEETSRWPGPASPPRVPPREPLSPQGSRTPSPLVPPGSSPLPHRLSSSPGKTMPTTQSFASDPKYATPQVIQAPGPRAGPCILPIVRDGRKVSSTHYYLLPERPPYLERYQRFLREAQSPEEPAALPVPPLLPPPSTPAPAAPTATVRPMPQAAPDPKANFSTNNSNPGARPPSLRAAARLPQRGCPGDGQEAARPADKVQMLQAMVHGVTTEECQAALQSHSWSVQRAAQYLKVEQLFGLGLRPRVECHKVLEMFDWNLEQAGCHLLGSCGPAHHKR

binding result [1]	binding result [2]	Binder
binds	–	endogenous Akt1 of mouse embryo fibroblasts (enzyme, UniProt P31750 1-480, looked up, Endogenous protein in MEF lysates) MNDVAIVKEGWLHKRGEYIKTWRPRYFLLKNDGTFIGYKERPQDVDQRESPLNNFSVAQCQLMKTERPRPNTFIIRCLQWTTVIERTFHVETPEEREEWATAIQTVADGLKRQEEETMDFRSGSPSDNSGAEEMEVSLAKPKHRVTMNEFEYLKLLGKGTFGKVILVKEKATGRYYAMKILKKEVIVAKDEVAHTLTENRVLQNSRHPFLTALKYSFQTHDRLCFVMEYANGGELFFHLSRERVFSEDRARFYGAEIVSALDYLHSEKNVVYRDLKLENLMLDKDGHIKITDFGLCKEGIKDGATMKTFCGTPEYLAPEVLEDNDYGRAVDWWGLGVVMYEMMCGRLPFYNQDHEKLFELILMEEIRFPRTLGPEAKSLLSGLLKKDPTQRLGGGSEDAKEIMQHRFFANIVWQDVYEKKLSPPFKPQVTSETDTRYFDEEFTAQMITITPPDQDDSMECVDSERRPHFPQFSYSASGTA
–	no binding	GST-Ack1 (kinase, SH3 and CRIB domain), expressed in E. coli (enzyme, UniProt Q07912 110-476, looked up, domain: kinase, SH3 and CRIB domain; also called GST-tagged Ack1; not shown: GST tag) GEGPLQSLTCLIGEKDLRLLEKLGDGSFGVVRRGEWDAPSGKTVSVAVKCLKPDVLSQPEAMDDFIREVNAMHSLDHRNLIRLYGVVLTPPMKMVTELAPLGSLLDRLRKHQGHFLLGTLSRYAVQVAEGMGYLESKRFIHRDLAARNLLLATRDLVKIGDFGLMRALPQNDDHYVMQEHRKVPFAWCAPESLKTRTFSHASDTWMFGVTLWEMFTYGQEPWIGLNGSQILHKIDKEGERLPRPEDCPQDIYNVMVQCWAHKPEDRPTFVALRDFLLEAQPTDMRALQDFEEPDKLHIQMNDVITVIEGRAENYWWRGQNTRTLCVGPFPRNVVTSVAGLSAQDISQPLQNSFIHTGHGDSDPRHCW
